Measurements taken from publication PMC3185027, “Structural and functional roles of deamidation of N146 and/or truncation of NH2- or COOH-termini in human αB-crystallin” (Molecular Vision, 2011).

B1: αB-CT (COOH-terminal extension deleted αB-crystallin) (domain or fragment, human, UniProt P02511 1-150, looked up)
chain: MDIAIHHPWIRRPFFPFHSPSRLFDQFFGEHLLESDLFPTSTSLSPFYLRPPSFLRAPSWFDTGLSEMRLEKDRFSVNLDVKHFSPEELKVKVLGDVIEVHGKHEERQDEHGFISREFHRKYRIPADVDPLTITSSLSSDGVLTVNGPRK
notes: human αB-crystallin lacking the COOH-terminal extension (residues 151-175); containing residues 1-150; Cloned in pET 100 Directional TOPO; also called COOH-terminally truncated αB; not shown: His6, N-terminal, kept
B2: wild-type (WT) αB-crystallin (natural protein, human, UniProt P02511 1-175, looked up)
chain: MDIAIHHPWIRRPFFPFHSPSRLFDQFFGEHLLESDLFPTSTSLSPFYLRPPSFLRAPSWFDTGLSEMRLEKDRFSVNLDVKHFSPEELKVKVLGDVIEVHGKHEERQDEHGFISREFHRKYRIPADVDPLTITSSLSSDGVLTVNGPRKQVSGPERTIPITREEKPAVTAAPKK
notes: human αB-crystallin, full-length protein containing all residues from 1 to 175; Cloned in pET 100 Directional TOPO; also called His-tagged WT αB-crystallin; not shown: His6, N-terminal, kept
B3: αB N146D (deamidated αB-crystallin mutant) (natural protein, human, UniProt P02511 1-175, looked up)
chain: MDIAIHHPWIRRPFFPFHSPSRLFDQFFGEHLLESDLFPTSTSLSPFYLRPPSFLRAPSWFDTGLSEMRLEKDRFSVNLDVKHFSPEELKVKVLGDVIEVHGKHEERQDEHGFISREFHRKYRIPADVDPLTITSSLSSDGVLTVDGPRKQVSGPERTIPITREEKPAVTAAPKK
notes: human αB-crystallin, residues 1-175, Asn 146 changed to Asp to mimic deamidation; Cloned in pET 100 Directional TOPO; not shown: His6, N-terminal, kept

Molecular target: the molecule itself
Experiment: SEC-MALS; HPLC-coupled multi-angle laser light scattering (Wyatt), 18 angles; samples in 50 mM sodium phosphate pH 7.8, filtered through 0.22 μm; absolute molar mass of homomers

Binding result, binds:
B1, B2, B3
